Experimental data taken from patent US20230398182A1 (ACCELERON PHARMA, published 2023).

Molecular target: T1, hTβRII (G4S)2-hFc (human)
T1 construct: 70 lacks the C-terminal lysine; Expressed in CHO cells
Assay: SPR (Biacore), in vitro

T1 sequence (chain, as listed by the source limits assumed): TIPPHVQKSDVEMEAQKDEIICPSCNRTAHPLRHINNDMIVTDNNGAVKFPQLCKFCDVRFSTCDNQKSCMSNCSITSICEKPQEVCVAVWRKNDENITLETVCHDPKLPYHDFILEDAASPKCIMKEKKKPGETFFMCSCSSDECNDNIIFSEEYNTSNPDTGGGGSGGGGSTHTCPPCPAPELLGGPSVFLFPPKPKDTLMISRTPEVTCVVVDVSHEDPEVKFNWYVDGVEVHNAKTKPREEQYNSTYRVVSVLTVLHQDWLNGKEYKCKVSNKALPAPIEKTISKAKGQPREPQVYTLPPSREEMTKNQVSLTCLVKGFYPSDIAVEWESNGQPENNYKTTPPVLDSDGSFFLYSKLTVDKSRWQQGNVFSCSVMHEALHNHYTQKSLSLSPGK

B1: Human TGFβ2 (ligand, UniProt P61812 303-414, looked up)
chain: ALDAAYCFRNVQDNCCLRPLYIDFKRDLGWKWIHEPKGYNANFCAGACPYLWSSDTQHSRVLSLYNTINPEASASPCCVSQDLEPLTILYYIGKTPKIEQLSNMIVKSCKCS
B1: binds.
